# Results as given in patent US20230094463A1 (TRUEBINDING, published 2023).
# Key:
# [1] = molecular target: T1, Human Galectin-3 protein (Acro Biosystems, GA3-H5129) (human, UniProt P17931 2-250); experiment: blocking ELISA (Gal3 coated; antibody 3 µg/mL + INSR)
# T1 construct: Bought protein; also called Gal3-ECD-His; Gal3-His; not shown: linker-spaced 6-histidine tag
# [2] = molecular target: T2, Human GAL3 protein (TrueBinding, QCB200349 / QCB200352; R&D Systems, 8259-GA) (human, UniProt P17931 2-250); experiment: blocking ELISA (GAL3 coated; antibody + biotinylated ITGa3)
# T2 construct: also called human galectin-3
# [3] = molecular target: T2, Human GAL3 protein (TrueBinding, …); experiment: blocking ELISA (GAL3 coated; antibody + biotinylated ITGb3)
# [4] = molecular target: T1, Human Galectin-3 protein (Acro …); experiment: ELISA, blocking of INSR binding to coated Gal3
# [5] = molecular target: T2, Human GAL3 protein (TrueBinding, …); experiment: blocking ELISA (GAL3 coated; antibody + biotinylated ITGaV)
# [6] = molecular target: T1, Human Galectin-3 protein (Acro …); experiment: ELISA, blocking of INSR binding to coated Gal3; remark: listed apart in the source
# [7] = molecular target: T1, Human Galectin-3 protein (Acro …); experiment: SPR (Biacore T200), antibody captured, Galectin-3 as analyte
# [8] = molecular target: T2, Human GAL3 protein (TrueBinding, …); experiment: blocking ELISA (GAL3 coated; antibody + biotinylated ITGb1)
Binder,"Gal3-INSR binding remaining, % of unblocked sample [1] [%]",percent blockade of GAL3-ITGa3 interaction [2] [%],percent blockade of GAL3-ITGb3 interaction [3] [%],IC50 (read off the curve) [4] [µg/mL],percent blockade of GAL3-ITGaV interaction [5] [%],Gal3-INSR Blocking @ 3 µg/mL [6] [%],Kd [7] [nM],reduction of Gal3-INSR binding (%) [1] [%],percent blockade of GAL3-ITGb1 interaction [8] [%]
"2D10.2B2 (antibody, V domains shown) VH: QVQLQQSGPELVKPGASVKISCKASGYTFTDYYINWVKQRPGQGLEWIGWIYPGSNDTKYNEKFKGKATLTVDTSSSTAYMQLGSLTSEDSAVYFCANYFGCSGWFFDVWGTGTTVTVSS VL: DIVMTQAAFSNPVTLGTSASISCRSSKSLLHSDGITYLYWYLQRPGQSPQLLIYRMSNLASGVPDRFSGSGSGTDFTLRISRVEAEDVGVYYCAQMIEFPLTFGAGTILELK",< 5,> 90,> 90,~0.5,> 90,100,0.753,,
"4A11.2B5 (antibody, V domains shown) VH: QVQLQQSGPELVKPGASVKISCKASGYSFTNYYIHWVKQRPGQGLEWIGWIYPGSGNTNYNEKFKGKATLTADTSSSTTNMQLSSLTSEDSAVYYCSTAPGGFDVWGSGTTVTVSS VL: DIVMTQAAFSNPVTLGTSASISCRSSKSLLHSDGITYLYWYLQRPGQSPQLLIYRMSNLASGVPDRFSGSGSGTDFTLRISRVEAEDVGVYYCAQMLEFPLTFGAGTKLELK",< 5,,,,,100,5.22,,
"4G2.2G6 (antibody, V domains shown) VH: QIQLVQSGPDLKKPGETVKISCKASGYTFTTYVMSWVKQAPGKDLKWMGWINTHSGVPTYADDFKGRFDFSLETSANTAFLQINNLKNEDTATYFCTRDGNDGDAMDNWGQGTSVTVSS VL: not shown",< 5,,,,,100,< 1,,
"3B11.2G2 (antibody, V domains shown) VH: QIQLVQSGPELKKPGETVKISCKTSGYKFKTYVMSWVKQAPGKALKWMGWINTYSGVPTYADDFKGRFAFSLETSASTAYLEIINLKNEDTATYFCARDGNYGDPMDYWGQGTSVTVSS VL: not shown",< 5,,,,,96,< 1,,
"13A12.2E5 (antibody, V domains shown) VH: QIQLVQSGPELKKPGETVKISCKTSGYKFKTYVMSWVKQAPGKALKWMGWINTYSGVPTYADDFKGRFAFSLETSASTAYLEIINLKNEDTATYFCARDGNYGDPMDYWGQGTSVTVSS VL: DVVMTQTPLTLSVAIGQPASISCKSSQSLLYTNGKTYLNWLLQRPGQSPKRLIYLLSKLDSGVPDRFSASGSGTDFTLKISRVEAEDLGVYYCLQSTHFPLTFGAGTKLEMK",< 5,> 90,> 90,,,97,8.2,,
"12G5.D7 (antibody, V domains shown) VH: QVQLKQSGAELVRPGASVKLSCKASGYTFTDYYINWVKQRPGQGLEWIARIYPGTGNTDYNEKFKGRATLTAEKSSSTAYMQLSSLTSEDSAVYFCARFAYYYGSGGYFDYWGHGTTLTVSS VL: DILMTQSPSSMSVSLGDTVSITCHASQGINSNMGWLQQKPGKSFKGLIYHATNLEDGVPSRFSGSGSGADYSLTISSLESEDFADYYCVQYAQFPPTFGSGTKLEIK",,< 35,< 10,,< 30,27,1.9,≤ 30,
"24D12.2H9 (antibody, V domains shown) VH: QVQLKQSGPGLVQPSQSLSITCTVSGFSLTSYGVHWVRQAPGKGLEWLGVIWSGGSTDYNAAFMSRLSISKDNSKSQVFFKMNSLQADDTAIYYCAKSPDGYDVAWFGYWGQGTLVTVSA VL: DIVMTQSHKFMSTSVGDRVSITCKASQDVRTAVAWYQQKPGQSPKLLIYWASTRHTGVPDRFTGSGSGTDFTLTLSNVQSEDLADYFCQQYSSYPWTFGGGTKLEIK",,,,,,22,4.13,≤ 30,
"F847C.10B9 (antibody, V domains shown, also called 847.10B9) VH: QIQLVQSGPEVKKPGETVKISCKASGYIFTNYGMNWVKQAPGKGLKWMGWINTYTGEPTYTDDFKGRFAFSLETSASTAYLQINNLKNEDTATYFCAKFGNYVGAMDYWGQGTSVTVSS VL: DIRMTQSPSSLSASLGDTITITCHASQNINVWLSWYQQKPGNIPKLLIYKASNLHTGVPSRFSGSGSGTGFTLTISSLQPEDIATYYCQQGQSYPYTFGGGTKLELK",,> 90,> 90,,> 90,,,,
"F847C.26F5 (antibody, V domains shown, also called 847.26F5) VH: QIQLVQSGPEVKKPGETVKISCKASGYIFTNYGMNWVKQAPGKGLKWMGWINTYTGEPTYTDDFKGRFAFSLETSASTAYLQINNLKNEDTATYFCAKFGNYVGAMDYWGQGTSVTVSS VL: EIKMNQSPSSLSASLGDTITITCHASQNINVWLSWYQQKPGNIPKLLIYKASNLHTGVPSRFSGSGSGTGFTLTISSLQPEDIATYYCQQGQSYPYTFGGGTKLELK",,> 90,> 90,,> 90,,,,
"F847C.12F12 (antibody, V domains shown, anti-Gal3 antibody; also called 847.12F12; 84712F12) VH: QIQLVQSGPELKKPGETVKISCKASGYTFTNYGMNWVKQAPGKGLKWMGWINTYTGEPTYVDDFKGRFAFSLETSASTAYLRINNLKNEDTATYFCAKFGNYVGAMDYWGQGTSVTVSS VL: DIQVIQSPSSLSASLGDTITITCHASQNINVWLSWYQQKPGNIPKLLIYKASNLHTGVPSRFSGSGSGTGFTLTISSLQPEDIATYYCQQGQSYPYTFGGGTKLELK",,> 90,> 90,,> 90,,,,
"F846TC.14A2 (antibody, V domains shown, anti-Gal3 antibody; also called 846T.14A2) VH: QIQLVQSGPELKKPGETVKISCKASGYTFTNYGMNWVKQAPGKGLKWMGWINTYTGEPTYAGDLKGRFAFSLETSASTAYLQINNLKNEDTATYFCVRYTMDYWGQGTSVTVSS VL: QAVVTQESALTTSPGETVTLTCRSSTGAVTTSNYANWVQEKPDHLFTGLIGGINNRVPGVPARFSGSLIGDKAALTITGAQTEDEAIYFCALWYSNHWVFGGGTKLTVL",,> 90,> 90,,> 90,,,,
"F847.14H4 (847.14H4) (antibody, V domains shown, anti-Gal3 antibody) VH: QIQLVQSGPELTKPGETVKISCKASGYTFTDYGMNWVRQAPGETLKWMGWINTYTGEPTYADDFKGRFAFSLESSASTAYLQINNLKNEDVATYFCARYPMDYWGQGTSVTVSS VL: QAVVTQESALTTSPGETVTLTCRSSTGAVTTSNYANWVQEKPDHLFTGLIGGTNNRAPGVPARFSGSLIGDKAALTITGAQTEDEAIYFCALWYSNHLVFGGGTKLTVL",,< 35,< 10,,< 30,,,,
"14H10.2C9 (antibody, V domains shown) VH: QIQLVQSGPELKKPGETVKISCKASGYTFTTYGMGWVKQAPGKDLKWMGWINTYSGVPTYADDFKGRFAFSLETSASTAYLQISNLKNEDTATYFCSTPYEYDGAYWGQGTLVTVSA VL: not shown",< 5,> 90,> 90,,> 90,100,0.562,,
"19D9.2E5 (antibody, V domains shown) VH: QIQLVQSGPELKKPGETVKISCKASGYTFTTYGMGWVKQAPGKGLKWMGWINTYSGVPTYADDFKGRFAFSLETSTSTAYLQINNLKNEDMATYFCATPYEYDGAYWGQGTLVTVSA VL: not shown",< 5,,,,,100,< 1,,
"F847C.11B1 (antibody, V domains shown, anti-Gal3 antibody; also called 847.11B1) VH: EVQLQQSGPELVKPGASVKISCKASGNTFTDHNMHWVKQSHGKSLEWIGYIYPYNGGTGYNQKFKSKATLTVDNSSSTVYMELRSLTSEDSAVYYCARGEYDYLAWFAYWGQGTLVTVSA VL: EIVLTQSPASLSVTTGEKVTIRCITSIDIDDDMNWYQQKPGEPPKLLISEGNTLRPGVPSRFSSSGYGTDFVFTIENTLSEDVADYYCLQSDNKPLTFGAGTKLELKR",,< 35,< 10,,< 30,,,,
"F846C.1F5 (antibody, V domains shown, also called 846.1F5) VH: QIQLVQSGPELKKPGETVKISCKASGYTFTNYGMNWVKQAPGKGLKWMGWINTYTGEPSYADDFKGRFAFSLETSASTAYLQINNLKNEDMATYFCARWGGYDGDYYAMDYWGQGTSVTVSS VL: NIMMTQSPSSLAVSAGEKVTMSCKSSQSVLYSSNQKNYLAWYQQKPGQSPKLLIYWASTRESGVPDRFTGSGSGTDFTLTISSVQPEDLAVYYCHQYLSSLTFGAGTKLELK",,> 90,> 90,,> 90,,,,> 90
